In PMC9522936, “Regain flood adaptation in rice through a 14-3-3 protein OsGF14h” (Nature Communications, 2022):

Experiments:
His-OsGF14h^SN9816 = biological target: T1, His-OsGF14h^SN9816 (rice (Oryza sativa), japonica variety …, UniProt Q2R1D5 1-230); test: pull-down; GST-OsHOX3 or GST-OsVP1 as bait on GST beads, equal quantities of recombinant proteins in GST pull-down buffer at 4 °C overnight, His-OsGF14h detected by anti-His; conditions: both partners purified
T1 construct: also called Hap1; source: E. coli Rosetta (DE3), purified (Ni NTA beads)
T1 sequence (looked up): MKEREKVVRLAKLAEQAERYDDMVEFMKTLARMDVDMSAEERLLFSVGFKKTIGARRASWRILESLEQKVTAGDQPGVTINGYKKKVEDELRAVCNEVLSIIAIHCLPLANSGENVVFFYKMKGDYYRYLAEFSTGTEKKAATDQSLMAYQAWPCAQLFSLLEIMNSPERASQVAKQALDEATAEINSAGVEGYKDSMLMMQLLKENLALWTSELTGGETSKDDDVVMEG

OsHOX3 = biological target: T2, OsHOX3 (Oryza sativa, UniProt Q9XH38 1-229); test: EMSA; without OsGF14h; Chemiluminescent EMSA Kit GS009 (Beyotime) per manufacturer; 6% native polyacrylamide gel; unlabeled competitor 10x and 20x; buffer, pH and temperature not stated; conditions: protein: recombinant; tags: GST (pGEX4T-1; N-terminal); chain copies: 2; label: biotin 3' end; blunt
T2 sequence: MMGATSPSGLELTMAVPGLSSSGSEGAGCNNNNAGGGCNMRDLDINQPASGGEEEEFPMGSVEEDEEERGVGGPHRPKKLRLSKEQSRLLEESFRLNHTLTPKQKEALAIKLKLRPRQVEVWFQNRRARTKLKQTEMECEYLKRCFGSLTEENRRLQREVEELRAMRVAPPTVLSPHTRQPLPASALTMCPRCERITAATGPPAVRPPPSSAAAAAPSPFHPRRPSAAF

B1: GST-OsHOX3 (natural protein, rice, UniProt Q0JKX1 1-229, looked up)
chain: T2 sequence
notes: HD-Zip family transcription factor OsHOX3, rice; source: E. coli Rosetta (DE3), purified (GST beads)
binding result (His-OsGF14h^SN9816): binds

B2: OsPYL5 promoter HD-ZIP3 probe (55 bp) (dsDNA)
DNA 1: AATATAAAACGGTGGGAGTATTAATGATTACATAGTCAATTTTATGTTTGCATTA
DNA 2: TAATGCAAACATAAAATTGACTATGTAATCATTAATACTCCCACCGTTTTATATT
binding result (OsHOX3): binds
